Data published in US20230190879A1 (JIANGSU HENGRUI PHARMACEUTICALS, published 2023).
Like-named read-outs stand apart in the source and are kept apart here. *1 amine or outer side, *2 acyl side, *3 side chain or, on linkers, in order; H or OH if unused. Where no end group is shown, it is not given here. Side-chain parts run from the residue outwards. [ ]: non-standard residue; d: D form. γGlu = O=C(O)[C@H](CCC(=O)[*:2])N[*:1]; AEEA = NCCOCCOCC(=O)O; Aib = CC(C)(N)C(=O)O

T1: human glucose-dependent insulinotropic polypeptide receptor (GIP receptor) (human, UniProt P48546 22-466)
T1 sequence (looked up): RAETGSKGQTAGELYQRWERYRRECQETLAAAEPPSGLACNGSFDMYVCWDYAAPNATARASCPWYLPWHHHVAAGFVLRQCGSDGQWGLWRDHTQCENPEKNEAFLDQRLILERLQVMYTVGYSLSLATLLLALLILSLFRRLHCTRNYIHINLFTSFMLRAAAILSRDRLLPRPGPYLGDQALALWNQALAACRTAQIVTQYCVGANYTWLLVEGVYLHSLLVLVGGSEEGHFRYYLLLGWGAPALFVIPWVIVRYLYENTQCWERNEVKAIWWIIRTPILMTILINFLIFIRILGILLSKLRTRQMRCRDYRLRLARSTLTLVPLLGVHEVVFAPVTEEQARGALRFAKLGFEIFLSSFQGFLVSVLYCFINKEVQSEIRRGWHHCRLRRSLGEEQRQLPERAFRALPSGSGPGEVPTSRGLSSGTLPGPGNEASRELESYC


Experiments:
Assay in all cases: cell-based or functional assay
[1] = target: human glucose-dependent insulinotropic polypeptide receptor (GIP receptor) (human) (UniProt P48546)
[2] = target: human glucagon-like peptide-1 receptor (GLP-1R) (human) (UniProt P43220)
Sequence of human glucagon-like peptide-1 receptor (GLP-1R) (human) (P43220 24-463): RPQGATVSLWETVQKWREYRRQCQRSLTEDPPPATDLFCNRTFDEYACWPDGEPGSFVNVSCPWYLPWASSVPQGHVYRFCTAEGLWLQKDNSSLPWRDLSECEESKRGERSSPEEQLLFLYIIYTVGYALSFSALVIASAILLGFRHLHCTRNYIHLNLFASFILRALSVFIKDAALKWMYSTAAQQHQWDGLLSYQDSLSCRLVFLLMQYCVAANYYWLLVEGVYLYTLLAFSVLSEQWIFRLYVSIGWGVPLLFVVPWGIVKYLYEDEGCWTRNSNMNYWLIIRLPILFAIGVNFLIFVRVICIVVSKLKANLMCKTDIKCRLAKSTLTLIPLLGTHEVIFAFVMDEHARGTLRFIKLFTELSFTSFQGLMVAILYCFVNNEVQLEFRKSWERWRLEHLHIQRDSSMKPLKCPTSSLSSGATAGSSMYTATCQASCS

[3] = target: human glucose-dependent insulinotropic polypeptide receptor (GIP receptor) (human) (UniProt P48546); remark: listed apart in the source
[4] = target: human glucagon-like peptide-1 receptor (GLP-1R) (human) (UniProt P43220); remark: listed apart in the source
[5] = target: T2, human glucagon-like peptide-1 receptor (GLP-1R) (human, UniProt P43220 24-463)
T2 sequence (P43220 24-463): as above

[6] = target: T1, human glucose-dependent insulinotropic …
[7] = target: T2, human glucagon-like peptide-1 receptor …; remark: listed apart in the source
[8] = target: T1, human glucose-dependent insulinotropic …; remark: listed apart in the source

Molecule	Human GLP-1R activity (EC50 nM); cAMP HTRF in CHO-K1/GLP-1R/CRE-luc cells [5] [nM]	Human GIP receptor activity (EC50 nM); cAMP HTRF in CHO-K1 cells transfected with hGIP receptor [6] [nM]	also measured
Natural GIP (from UniProt P09681 52-93) (ligand)	–	–	Human GIP receptor activity (EC50 nM); cAMP HTRF in CHO-K1 cells transfected with hGIP receptor [1]: 0.006 nM
LY3298176 (peptide)	–	–	Human GLP-1R activity (EC50 nM); cAMP HTRF in CHO-K1/GLP-1R/CRE-luc cells [2]: 0.13 nM; Human GIP receptor activity (EC50 nM); cAMP HTRF in CHO-K1 cells transfected with hGIP receptor [3]: 0.056 nM; Human GLP-1R activity (EC50 nM); cAMP HTRF in CHO-K1/GLP-1R/CRE-luc cells [4]: 0.078 nM; Human GIP receptor activity (EC50 nM); cAMP HTRF in CHO-K1 cells transfected with hGIP receptor [1]: 0.031 nM
Y[Aib]EGTFTSDYSIYLEK([AEEA-AEEA-γGlu-C20‑OH])IAAQEFVNWLIAGGPSSGAPPPS-NH2 [compound 9#]	0.049	0.04	–
Y[Aib]EGTFTSDYSIYLEK([AEEA-AEEA-γGlu-C20‑OH])IAAQEFINWLIAGGPSSGAPPPS-NH2 [compound 10#]	0.065	0.056	–
Y[Aib]EGTFTSDYSIYK([AEEA-AEEA-γGlu-C20‑OH])EKIAAQEFVNWLIAGGPSSGAPPPS-NH2 [compound 12#]	0.03	0.17	–
Y[Aib]EGTFTSDYSIYK([AEEA-AEEA-γGlu-C20‑OH])ERIAAQEFVNWLIAGGPSSGAPPPS-NH2 [compound 13#]	0.017	0.13	–
Y[Aib]EGTFTSDYSIYK([AEEA-AEEA-γGlu-C20‑OH])EKIAAQEFINWLIAGGPSSGAPPPS-NH2 [compound 14#]	0.013	0.13	–
Y[Aib]EGTFTSDYSIYK([AEEA-AEEA-γGlu-C20‑OH])ERIAAQEFINWLIAGGPSSGAPPPS-NH2 [compound 15#]	0.015	0.23	–
Y[Aib]EGTFTSDYSIYK([AEEA-AEEA-γGlu-C20‑OH])EKIAAQEFINWLLAGGPSSGAPPPS-NH2 [compound 16#]	0.029	0.095	–
Y[Aib]EGTFTSDYSIYK([AEEA-AEEA-γGlu-C20‑OH])ERIAAQEFVNWLLAGGPSSGAPPPS-NH2 [compound 17#]	0.022	0.11	–
Y[Aib]EGTFTSDYSIYK([AEEA-AEEA-γGlu-C20‑OH])EKIAAQEFVNWLLAGGPSSGAPPPS-NH2 [compound 18#]	0.013	0.06	–
Y[Aib]EGTFTSDYSIYK([AEEA-AEEA-γGlu-C20‑OH])DKIAAQEFVNWLLAGGPSSGAPPPS-NH2 [compound 7#]	–	–	Human GLP-1R activity (EC50 nM); cAMP HTRF in CHO-K1/GLP-1R/CRE-luc cells [7]: 0.021 nM; Human GIP receptor activity (EC50 nM); cAMP HTRF in CHO-K1 cells transfected with hGIP receptor [8]: 0.11 nM
